Measurements: PMC10530332

Assays:
[1] = biological target: natural nurse shark UrIg (nurse shark (Ginglymostoma cirratum) (endogenous in nurse shark tissues)); assay: non-reducing SDS-PAGE with western blot
[2] = biological target: recombinant UrIg, 4-domain molecule (V-C1-C2-C3) with C-terminal His tag (nurse shark (Ginglymostoma cirratum)); assay: SEC
[3] = biological target: recombinant UrIg, 4-domain molecule (V-C1-C2-C3) with C-terminal His tag (nurse shark (Ginglymostoma cirratum)); assay: SDS-PAGE, non-reducing against reducing

stoichiometry N [1]	stoichiometry N [2]	stoichiometry N [3]	Substance
2	–	–	natural nurse shark UrIg (natural protein)
–	2	2	recombinant UrIg, 4-domain molecule (V-C1-C2-C3) with C-terminal His tag (natural protein)
